Measurements as given in publication PMC9676403, “Crystal structure of the collagen prolyl 4-hydroxylase (C-P4H) catalytic domain complexed with PDI: Toward a model of the C-P4H α2β2 tetramer” (The Journal of Biological Chemistry, 2022).

B1: protein disulfide isomerase, the β-subunit of C-P4H (enzyme)
chain: not shown
notes: protein disulfide isomerase, human, called the intact or complete β/PDI subunit, without a tag; codon-optimized gene; the crystal model starts at Glu21; Made in the E. coli cytoplasm, so probably without the signal peptide (my surmise); also called PDI; β/PDI subunit; source: E. coli K12, polycistronic CyDisCo plasmid, coexpressed with the α-subunit and yeast Erv1; co-purified with the His-tagged …
B3: α-subunit of mature human C-P4H-II (enzyme, UniProt O15460-1 22-535, looked up)
chain: EFFTSIGHMTDLIYAEKELVQSLKEYILVEEAKLSKIKSWANKMEALTSKSAADAEGYLAHPVNAYKLVKRLNTDWPALEDLVLQDSAAGFIANLSVQRQFFPTDEDEIGAAKALMRLQDTYRLDPGTISRGELPGTKYQAMLSVDDCFGMGRSAYNEGDYYHTVLWMEQVLKQLDAGEEATTTKSQVLDYLSYAVFQLGDLHRALELTRRLLSLDPSHERAGGNLRYFEQLLEEEREKTLTNQTEAELATPEGIYERPVDYLPERDVYESLCRGEGVKLTPRRQKRLFCRYHHGNRAPQLLIAPFKEEDEWDSPHIVRYYDVMSDEEIERIKEIAKPKLARATVRDPKTGVLTVASYRVSKSSWLEEDDDPVVARVNRRMQHITGLTVKTAELLQVANYGVGGQYEPHFDFSRNDERDTFKHLGTGNRVATFLNYMSDVEAGGATVFPDLGAAIWPKKGTAVFWYNLLRSGEGDYRTRHAACPVLVGCKWVSNKWFHERGQEFLRPCGSTEVD
notes: collagen prolyl 4-hydroxylase α(II) subunit, human, isoform-IIb splice variant (exon 12b); the complex is called mature C-P4H-II; codon-optimized gene; also called α(II); Hs-α(II); source: E. coli K12, polycistronic CyDisCo plasmid, coexpressed with β/PDI and yeast Erv1; purified (Talon IMAC, HiTrap Q, Superdex 200); not shown: His6, N-terminal, kept

How the values were obtained:
[1] = molecular target: B3; assay: co-purification; His6-tagged α-subunit coexpressed with untagged β/PDI in E. coli (CyDisCo); Talon IMAC from the lysate, HiTrap Q, Superdex 200, 4 °C, Tris pH 7.8; subunits found in the purified sample by SDS-PAGE and MS; settings: partners not purified
[2] = molecular target: B1; assay: SEC-MALS; purified, frozen-thawed co-expressed complex on Superdex 200 Increase 10/300 GL in SEC buffer (50 mM Tris, pH 7.8, 50 mM NaCl, 100 mM glycine); settings: both partners purified
[3] = molecular target: the molecule itself; assay: as above
[4] = molecular target: B1; assay: co-purification; His6-tagged α-subunit coexpressed with untagged β/PDI in E. coli (CyDisCo); Talon IMAC from the lysate, HiTrap Q, Superdex 200, 4 °C, Tris pH 7.8; subunits found in the purified sample by SDS-PAGE and MS; settings: partners not purified

B1: binds [1].

B2: α-subunit of human C-P4H-II truncated to the catalytic (CAT) domain, construct C-P4H-II-Δ281 (domain or fragment, UniProt O15460-1 282-535, looked up)
chain: DYLPERDVYESLCRGEGVKLTPRRQKRLFCRYHHGNRAPQLLIAPFKEEDEWDSPHIVRYYDVMSDEEIERIKEIAKPKLARATVRDPKTGVLTVASYRVSKSSWLEEDDDPVVARVNRRMQHITGLTVKTAELLQVANYGVGGQYEPHFDFSRNDERDTFKHLGTGNRVATFLNYMSDVEAGGATVFPDLGAAIWPKKGTAVFWYNLLRSGEGDYRTRHAACPVLVGCKWVSNKWFHERGQEFLRPCGSTEVD
notes: residues 534-535 are named as the C-terminal residues; codon-optimized gene; Linked to PDI in the crystal by intersubunit disulfide bridges (Cys311-Cys397, Cys529-Cys53); also called Hs-α(II) from D282; source: E. coli K12, polycistronic CyDisCo plasmid, coexpressed with β/PDI and yeast Erv1; purified (Talon IMAC, HiTrap Q, Superdex 200)
B2: binds [2].

B3: binds [3].

B4: α-subunit of human C-P4H-II lacking the N-terminal dimerization domain, construct C-P4H-II-Δ140 (domain or fragment, UniProt O15460-1 141-535, looked up)
chain: DTYRLDPGTISRGELPGTKYQAMLSVDDCFGMGRSAYNEGDYYHTVLWMEQVLKQLDAGEEATTTKSQVLDYLSYAVFQLGDLHRALELTRRLLSLDPSHERAGGNLRYFEQLLEEEREKTLTNQTEAELATPEGIYERPVDYLPERDVYESLCRGEGVKLTPRRQKRLFCRYHHGNRAPQLLIAPFKEEDEWDSPHIVRYYDVMSDEEIERIKEIAKPKLARATVRDPKTGVLTVASYRVSKSSWLEEDDDPVVARVNRRMQHITGLTVKTAELLQVANYGVGGQYEPHFDFSRNDERDTFKHLGTGNRVATFLNYMSDVEAGGATVFPDLGAAIWPKKGTAVFWYNLLRSGEGDYRTRHAACPVLVGCKWVSNKWFHERGQEFLRPCGSTEVD
notes: collagen prolyl 4-hydroxylase α(II) subunit, human, isoform-IIb splice variant (exon 12b), first 140 residues deleted, starts at Asp141; holds the PSB and CAT domains; codon-optimized gene; also called PSB and CAT; Hs-α(II) from D141; source: E. coli K12, polycistronic CyDisCo plasmid, coexpressed with β/PDI and yeast Erv1; purified (Talon IMAC, HiTrap Q, Superdex 200); not shown: His6, …
B4: binds [4].
